Experimental data taken from patent US20160046711A1 (Novartis, published 2016).

T1: human CDH6 expressed on cells (human, UniProt P55285 54-790)
T1 sequence: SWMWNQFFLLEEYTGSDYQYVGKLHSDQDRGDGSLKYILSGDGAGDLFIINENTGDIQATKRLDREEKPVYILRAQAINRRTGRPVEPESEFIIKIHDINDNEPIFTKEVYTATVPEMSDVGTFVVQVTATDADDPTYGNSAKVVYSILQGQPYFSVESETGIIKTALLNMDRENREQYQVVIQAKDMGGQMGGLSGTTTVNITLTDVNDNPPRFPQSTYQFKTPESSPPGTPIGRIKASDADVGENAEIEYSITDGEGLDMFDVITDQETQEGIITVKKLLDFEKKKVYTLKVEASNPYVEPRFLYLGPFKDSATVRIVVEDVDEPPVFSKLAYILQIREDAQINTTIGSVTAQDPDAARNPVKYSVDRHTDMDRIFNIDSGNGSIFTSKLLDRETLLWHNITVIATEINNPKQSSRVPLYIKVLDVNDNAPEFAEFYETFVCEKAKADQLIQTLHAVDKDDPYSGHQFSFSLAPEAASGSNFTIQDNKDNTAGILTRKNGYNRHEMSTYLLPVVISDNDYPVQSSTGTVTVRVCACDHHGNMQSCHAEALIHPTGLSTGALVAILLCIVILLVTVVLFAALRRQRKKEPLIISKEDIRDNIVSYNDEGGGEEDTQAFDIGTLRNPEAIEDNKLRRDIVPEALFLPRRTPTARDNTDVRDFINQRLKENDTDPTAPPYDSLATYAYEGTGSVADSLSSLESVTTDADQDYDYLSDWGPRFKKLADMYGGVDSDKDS

T2: mouse CDH6 expressed on CHO cells (mouse, UniProt P97326 54-790)
T2 sequence (looked up): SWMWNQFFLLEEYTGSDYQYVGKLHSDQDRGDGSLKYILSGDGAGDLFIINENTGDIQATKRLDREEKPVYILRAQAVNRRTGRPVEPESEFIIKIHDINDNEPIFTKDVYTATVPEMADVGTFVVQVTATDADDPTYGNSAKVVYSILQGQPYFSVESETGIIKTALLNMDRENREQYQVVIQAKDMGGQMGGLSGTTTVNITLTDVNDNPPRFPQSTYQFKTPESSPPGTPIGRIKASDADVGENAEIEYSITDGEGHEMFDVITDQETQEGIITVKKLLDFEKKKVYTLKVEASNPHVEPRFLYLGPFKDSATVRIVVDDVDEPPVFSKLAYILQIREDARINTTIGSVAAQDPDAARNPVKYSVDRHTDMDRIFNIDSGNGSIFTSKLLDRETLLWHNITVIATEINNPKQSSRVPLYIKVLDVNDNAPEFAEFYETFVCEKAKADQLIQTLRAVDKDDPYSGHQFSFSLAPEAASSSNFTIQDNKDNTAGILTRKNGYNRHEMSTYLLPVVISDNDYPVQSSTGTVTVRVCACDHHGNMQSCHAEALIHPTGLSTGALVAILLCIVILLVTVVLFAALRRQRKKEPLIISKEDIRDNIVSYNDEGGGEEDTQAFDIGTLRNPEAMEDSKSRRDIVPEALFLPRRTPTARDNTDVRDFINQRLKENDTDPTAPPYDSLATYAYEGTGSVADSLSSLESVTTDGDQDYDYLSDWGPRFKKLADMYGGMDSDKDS

T3: cynomolgus CDH6 expressed on CHO cells (cynomolgus, UniProt A0A2K5TW62 54-790)
T3 sequence: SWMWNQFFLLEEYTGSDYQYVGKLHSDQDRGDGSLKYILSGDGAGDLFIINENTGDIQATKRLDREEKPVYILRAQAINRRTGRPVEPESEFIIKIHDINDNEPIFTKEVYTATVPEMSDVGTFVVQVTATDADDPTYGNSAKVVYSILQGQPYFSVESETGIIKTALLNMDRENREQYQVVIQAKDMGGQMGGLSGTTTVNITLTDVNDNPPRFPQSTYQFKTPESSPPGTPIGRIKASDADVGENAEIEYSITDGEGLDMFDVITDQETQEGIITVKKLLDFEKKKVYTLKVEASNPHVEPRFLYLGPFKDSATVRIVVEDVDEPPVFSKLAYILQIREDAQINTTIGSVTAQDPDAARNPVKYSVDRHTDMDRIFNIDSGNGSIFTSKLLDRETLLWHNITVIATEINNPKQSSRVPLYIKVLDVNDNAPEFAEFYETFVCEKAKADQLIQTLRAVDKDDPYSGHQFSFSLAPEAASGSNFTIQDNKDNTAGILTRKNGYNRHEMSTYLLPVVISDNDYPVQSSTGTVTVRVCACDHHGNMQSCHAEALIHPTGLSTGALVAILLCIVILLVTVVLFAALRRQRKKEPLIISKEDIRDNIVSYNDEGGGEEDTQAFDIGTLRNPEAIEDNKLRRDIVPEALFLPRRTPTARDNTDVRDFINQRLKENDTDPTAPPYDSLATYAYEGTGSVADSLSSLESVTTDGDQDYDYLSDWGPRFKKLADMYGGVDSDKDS

T4: rat CDH6 expressed on CHO cells (rat, UniProt P55280 54-789)
T4 sequence (looked up): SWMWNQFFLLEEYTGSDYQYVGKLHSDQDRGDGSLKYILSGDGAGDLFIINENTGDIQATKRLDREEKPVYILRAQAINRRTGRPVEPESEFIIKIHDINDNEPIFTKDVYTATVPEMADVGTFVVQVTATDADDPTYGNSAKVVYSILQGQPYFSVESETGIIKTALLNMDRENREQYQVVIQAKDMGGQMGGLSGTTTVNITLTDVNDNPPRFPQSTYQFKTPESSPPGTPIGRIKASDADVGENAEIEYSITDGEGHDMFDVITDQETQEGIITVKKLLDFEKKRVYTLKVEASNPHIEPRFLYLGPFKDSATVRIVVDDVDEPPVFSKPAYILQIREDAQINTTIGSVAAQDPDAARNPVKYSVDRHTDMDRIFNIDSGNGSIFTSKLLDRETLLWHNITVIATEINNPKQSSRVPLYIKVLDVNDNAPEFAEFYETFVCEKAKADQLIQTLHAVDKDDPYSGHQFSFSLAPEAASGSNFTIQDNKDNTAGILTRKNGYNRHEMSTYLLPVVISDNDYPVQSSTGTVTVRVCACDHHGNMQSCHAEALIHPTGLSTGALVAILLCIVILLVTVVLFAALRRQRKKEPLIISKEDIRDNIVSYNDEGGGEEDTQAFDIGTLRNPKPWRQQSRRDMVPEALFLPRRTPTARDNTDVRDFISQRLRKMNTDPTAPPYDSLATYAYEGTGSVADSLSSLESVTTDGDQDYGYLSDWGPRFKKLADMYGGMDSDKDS

B1: NOV0712 (antibody, human IgG1, kappa, V domains shown)
VH: QVQLLESGGGLVQPGGSLRLSCAASGFTFSSHGMHWVRQAPGKGLEWVSVISGSGSNTGYADSVKGRFTISRDNSKNTLYLQMNSLRAEDTAVYYCARQWGSYAFDSWGQGTLVTVSS
VL: DIQMTQSPSSLSASVGDRVTITCRASQSISSYLNWYQQKPGKAPKLLIYAVSTLQSGVPSRFSGSGSGTDFTLTISSLQPEDFATYYCQQSGTFPPTTFGQGTKVEIKR
B2: NOV0712-sulfo-SPDB-DM4 (antibody, human IgG1, kappa, V domains shown)
VH: QVQLLESGGGLVQPGGSLRLSCAASGFTFSSHGMHWVRQAPGKGLEWVSVISGSGSNTGYADSVKGRFTISRDNSKNTLYLQMNSLRAEDTAVYYCARQWGSYAFDSWGQGTLVTVSS
VL: DIQMTQSPSSLSASVGDRVTITCRASQSISSYLNWYQQKPGKAPKLLIYAVSTLQSGVPSRFSGSGSGTDFTLTISSLQPEDFATYYCQQSGTFPPTTFGQGTKVEIKR
modifications: sulfo-SPDB-DM4 linker/payload on antibody amines, positions not given

How the values were obtained:
[1] = molecular target: T1, human CDH6 expressed on cells; test: FACS titration
[2] = molecular target: T2, mouse CDH6 expressed on CHO cells; test: FACS titration
[3] = molecular target: T1, human CDH6 expressed on cells; test: FACS titration; remark: listed apart in the source
[4] = molecular target: T3, cynomolgus CDH6 expressed on CHO cells; test: FACS titration
[5] = molecular target: T4, rat CDH6 expressed on CHO cells; test: FACS titration
[6] = molecular target: T3, cynomolgus CDH6 expressed on CHO cells; test: FACS titration on CHO-cyCDH6
[7] = molecular target: T4, rat CDH6 expressed on CHO cells; test: FACS titration on CHO-ratCDH6
[8] = molecular target: T2, mouse CDH6 expressed on CHO cells; test: FACS titration on CHO-moCDH6
[9] = molecular target: T1, human CDH6 expressed on cells; test: FACS titration on CHO-TO-huCDH6

Row | Binder | EC50 [1] [pM] | EC50 [2] [pM] | EC50 [3] [pM] | EC50 [4] [pM] | EC50 [5] [pM] | EC50 [6] [pM] | EC50 [7] [pM] | EC50 [8] [pM] | EC50 [9] [pM]
1 | B1 | 386 | 1260 | 946 | 1070 | 814 | – | – | – | –
2 | B2 | 364 | – | – | – | – | 606 | 637 | 940 | 651
